From patent US20190184026A1
Each block holds one substance with its values, some of them ahead of it.

How the values were obtained:
Assay in all cases: cell-based or functional assay
[1] = molecular target: lactating receptors of the Nb2 cells (rat) (UniProt P05710)
human GLP-1R (human) = human GLP-1R (human) (UniProt P43220)
[2] = molecular target: CD3 (on T cells of human PBMCs) (human)

Chain of lactating receptors of the Nb2 cells (rat) (P05710 20-610): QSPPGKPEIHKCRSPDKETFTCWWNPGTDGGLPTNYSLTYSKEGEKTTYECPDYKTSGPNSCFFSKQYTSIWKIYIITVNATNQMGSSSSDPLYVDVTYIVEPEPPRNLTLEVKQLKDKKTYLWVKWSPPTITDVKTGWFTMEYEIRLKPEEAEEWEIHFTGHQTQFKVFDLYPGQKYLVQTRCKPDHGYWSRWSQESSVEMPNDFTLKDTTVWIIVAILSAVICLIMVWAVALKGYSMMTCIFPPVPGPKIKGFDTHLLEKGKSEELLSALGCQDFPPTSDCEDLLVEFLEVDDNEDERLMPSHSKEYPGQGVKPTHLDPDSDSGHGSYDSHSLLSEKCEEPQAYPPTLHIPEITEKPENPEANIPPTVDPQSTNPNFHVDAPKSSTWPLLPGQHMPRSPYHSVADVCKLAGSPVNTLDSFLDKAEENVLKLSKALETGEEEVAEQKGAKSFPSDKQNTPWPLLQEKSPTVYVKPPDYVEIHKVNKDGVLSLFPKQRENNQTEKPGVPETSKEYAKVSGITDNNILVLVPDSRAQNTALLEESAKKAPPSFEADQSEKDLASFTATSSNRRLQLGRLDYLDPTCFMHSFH
Chain of human GLP-1R (human) (P43220 24-463): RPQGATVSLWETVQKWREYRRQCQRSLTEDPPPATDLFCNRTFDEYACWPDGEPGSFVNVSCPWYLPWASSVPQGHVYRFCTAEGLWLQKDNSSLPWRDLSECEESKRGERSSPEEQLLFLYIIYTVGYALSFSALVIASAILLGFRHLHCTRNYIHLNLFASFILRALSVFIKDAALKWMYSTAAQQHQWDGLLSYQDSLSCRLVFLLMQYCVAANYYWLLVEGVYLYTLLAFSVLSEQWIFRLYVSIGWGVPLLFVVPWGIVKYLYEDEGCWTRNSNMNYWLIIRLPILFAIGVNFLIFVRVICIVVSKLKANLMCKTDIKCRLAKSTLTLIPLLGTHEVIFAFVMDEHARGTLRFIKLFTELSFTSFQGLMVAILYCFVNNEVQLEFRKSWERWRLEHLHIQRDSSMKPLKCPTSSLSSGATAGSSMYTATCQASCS

EC50 (Nb2 cell proliferation, CCK-8) [1]: 0.00694 nM
Substance: hGH (from UniProt P01241 27-217) (ligand)

in vitro activity EC50 (CRE-Luc reporter, CHO-K1 cells with human GLP-1R) (human GLP-1R (human)): 0.0299 nM
Substance: duraglutide (Eli Lilly, Cat. No. 9301897) (Fc fusion)

EC50 of activation of human PBMCs (CCK-8, absorbance at 492 nM) [2]: 0.015 nM
Substance: anti-CD3 monoclonal antibody OKT3
